Measurements: IntAct's records for PubMed 19779455

B1: E3 SUMO-protein ligase PIAS4 (Homo sapiens), Q8N2W9 (parent)
chain: MAAELVEAKNMVMSFRVSDLQMLLGFVGRSKSGLKHELVTRALQLVQFDCSPELFKKIKELYETRYAKKNSEPAPQPHRPLDPLTMHSTYDRAGAVPRTPLAGPNIDYPVLYGKYLNGLGRLPAKTLKPEVRLVKLPFFNMLDELLKPTELVPQNNEKLQESPCIFALTPRQVELIRNSRELQPGVKAVQVVLRICYSDTSCPQEDQYPPNIAVKVNHSYCSVPGYYPSNKPGVEPKRPCRPINLTHLMYLSSATNRITVTWGNYGKSYSVALYLVRQLTSSELLQRLKTIGVKHPELCKALVKEKLRLDPDSEIATTGVRVSLICPLVKMRLSVPCRAETCAHLQCFDAVFYLQMNEKKPTWMCPVCDKPAPYDQLIIDGLLSKILSECEDADEIEYLVDGSWCPIRAEKERSCSPQGAILVLGPSDANGLLPAPSVNGSGALGSTGGGGPVGSMENGKPGADVVDLTLDSSSSSEDEEEEEEEEEDEDEEGPRPKRRCPFQKGLVPAC

Variants of: B1
Settings: with parp1_human PARP1, P09874
Sequence of parp1_human PARP1, P09874 (P09874 whole entry): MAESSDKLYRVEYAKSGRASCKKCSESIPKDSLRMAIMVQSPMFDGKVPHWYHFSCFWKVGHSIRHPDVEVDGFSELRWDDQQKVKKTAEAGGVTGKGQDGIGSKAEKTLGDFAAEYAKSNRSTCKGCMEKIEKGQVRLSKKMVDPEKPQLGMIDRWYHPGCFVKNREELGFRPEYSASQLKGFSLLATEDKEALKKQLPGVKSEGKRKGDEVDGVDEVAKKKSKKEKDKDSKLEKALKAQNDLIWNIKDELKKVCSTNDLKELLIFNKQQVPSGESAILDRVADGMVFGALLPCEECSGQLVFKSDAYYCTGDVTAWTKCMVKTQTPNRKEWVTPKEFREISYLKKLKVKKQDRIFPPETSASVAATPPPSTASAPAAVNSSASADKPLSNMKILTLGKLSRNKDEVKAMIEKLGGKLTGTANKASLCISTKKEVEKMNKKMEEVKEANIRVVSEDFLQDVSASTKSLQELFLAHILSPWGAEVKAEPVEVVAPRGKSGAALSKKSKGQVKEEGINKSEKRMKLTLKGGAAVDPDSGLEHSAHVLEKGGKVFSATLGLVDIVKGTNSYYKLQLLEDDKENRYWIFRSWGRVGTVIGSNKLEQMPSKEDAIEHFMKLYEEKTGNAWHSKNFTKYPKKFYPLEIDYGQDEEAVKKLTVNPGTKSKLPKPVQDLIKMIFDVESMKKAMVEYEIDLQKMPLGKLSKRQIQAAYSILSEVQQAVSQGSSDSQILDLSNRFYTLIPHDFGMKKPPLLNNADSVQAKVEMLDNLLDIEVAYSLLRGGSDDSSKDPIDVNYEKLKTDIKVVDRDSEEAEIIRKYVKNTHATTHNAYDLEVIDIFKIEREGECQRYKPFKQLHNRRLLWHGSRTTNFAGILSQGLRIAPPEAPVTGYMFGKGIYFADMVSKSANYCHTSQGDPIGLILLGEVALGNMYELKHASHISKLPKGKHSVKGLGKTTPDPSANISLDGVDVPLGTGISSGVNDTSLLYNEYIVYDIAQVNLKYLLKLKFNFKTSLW

Variant | effect of a mutation on the interaction
MAAELVEAKNMVMSFRVSDLQMLLGFVGRSKSGLKHELVTRALQLVQFDCSPELFKKIKELYETRYAKKNSEPAPQPHRPLDPLTMHSTYDRAGAVPRTPLAGPNIDYPVLYGKYLNGLGRLPAKTLKPEVRLVKLPFFNMLDELLKPTELVPQNNEKLQESPCIFALTPRQVELIRNSRELQPGVKAVQVVLRICYSDTSCPQEDQYPPNIAVKVNHSYCSVPGYYPSNKPGVEPKRPCRPINLTHLMYLSSATNRITVTWGNYGKSYSVALYLVRQLTSSELLQRLKTIGVKHPELCKALVKEKLRLDPDSEIATTGVRVSLICPLVKMRLSVPCRAETFAHLQCFDAVFYLQMNEKKPTWMCPVCDKPAPYDQLIIDGLLSKILSECEDADEIEYLVDGSWCPIRAEKERSCSPQGAILVLGPSDANGLLPAPSVNGSGALGSTGGGGPVGSMENGKPGADVVDLTLDSSSSSEDEEEEEEEEEDEDEEGPRPKRRCPFQKGLVPAC [C342F] | disrupting interaction
